Biological target: T1, MBP-PqsH, recombinant (P. aeruginosa PAO1, UniProt Q9I0Q0 1-382)
T1 construct: also called PqsH protein; source: E. coli BL21 (DE3), pMAL-C5x, purified (Dextrin Beads 6FF, Mono Q ion exchange, Superdex 200 gel filtration)
T1 sequence: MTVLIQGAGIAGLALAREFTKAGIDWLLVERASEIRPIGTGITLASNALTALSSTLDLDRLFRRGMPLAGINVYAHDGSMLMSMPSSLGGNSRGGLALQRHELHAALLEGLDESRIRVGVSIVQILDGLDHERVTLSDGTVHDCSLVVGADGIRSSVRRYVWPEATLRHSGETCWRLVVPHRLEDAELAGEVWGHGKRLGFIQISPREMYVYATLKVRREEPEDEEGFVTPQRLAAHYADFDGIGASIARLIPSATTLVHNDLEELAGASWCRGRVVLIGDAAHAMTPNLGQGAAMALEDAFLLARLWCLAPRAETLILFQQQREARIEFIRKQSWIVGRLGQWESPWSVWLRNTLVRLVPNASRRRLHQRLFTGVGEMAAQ
Assay: SPR
Details: both partners purified

B1: HIS-ZapE, recombinant (natural protein, P. aeruginosa PAO1, UniProt Q9HVX7 1-364, looked up)
chain: MTPLERYQADLQRPDFFHDAAQANAVKHLQRLYDDLVAADHAKPGLFGKLLGRKSGGPVKGLYFWGGVGRGKTYLVDTFFESLPFEQKVRTHFHRFMKRVHEELKTLKGEKNPLTIIGKRFADEARVICFDEFFVSDITDAMILATLLEELFKNGVSLVATSNIVPDGLYKDGLQRARFLPAIALLKEHTEIVNVDSGVDYRLRALEQAELFHWPLSEQVEEEMARSFKALTPDCAKAQRDEALMIENREIRARLTCDDVAWFEFRELCDGPRSQNDYIELAKIFHAVLISNVEQMGVTKDDMARRFINLVDEFYDRSVKLIISAEVELKDLYSGGRLEFEFQRTLSRLLEMQSHEYLTRPHRP
notes: also called PA4438; ZapE protein; source: E. coli BL21 (DE3), pET28a, purified (Ni NTA beads, Mono Q ion exchange, Superdex 200 gel filtration)
- binding result: binds
